Results published in patent publication US20140377284A1 (BIOCEROX PRODUCTS B V, published 2014).

Key:
[1] = target: T1, human CD134-derived peptide (truncated CRD3 A1-module-CRD4 subdomain A1-module) (human); test: peptide ELISA, 10 ng/well peptide coated
T1 construct: Synthesized by Pepscan Presto; coated on ELISA plates
T1 peptide: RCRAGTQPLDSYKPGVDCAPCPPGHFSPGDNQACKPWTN
Protocol: (§1) After adding 1 M […], optical densities was measured at a wavelength of 450 nm (reference wavelength of 655 nm) using a microplate reader (BioRad).
(§2) Ninety six-wells flat-bottom ELISA plates (Corning) were coated with 10 ng/well human CD134-derived peptide (synthesized by Pepscan Presto, Lelystad, The Netherlands), which corresponded to amino acid sequence of truncated CRD3 A1-module-CRD4 subdomain A1 module (see SEQ ID NO. 38) or with 10 ng/well human fibronectin-derived control peptide (synthesized by Pepscan Presto, Lelystad, The Netherlands), which corresponded to amino acid sequence of extra type III structural domain (see SEQ ID NO. 37) in PBS o/n at 4° C. After extensive washing in PBS/0.05% Tween 20, plates were blocked in PBS/0.05% Tween 20/1% BSA fraction V (Roche) for 1 hour at RT. […] After extensive washing in PBS/0.05% Tween 20, binding of antibodies was determined with 1:5000 diluted horseradish peroxidase-conjugated goat anti-human IgG Fcγ-specific antibodies (Jackson ImmunoResearch) for 1 hour at RT, followed by a ready-to-use solution of TMB substrate (Invitrogen) for colorimetric detection. After adding 1 M H₂SO₄, optical densities was measured at a wavelength of 450 nm (reference wavelength of 655 nm) using a microplate reader (BioRad).

[2] = target: T2, human CD134 (full-length, on cells) (human, UniProt P43489 29-277); test: competition flow cytometry, stable CD134 293-F clone no. 5; competitor biotinylated mouse 12H3 at 700 ng/mL
T2 construct: also called OX40; TNFRSF4
T2 sequence: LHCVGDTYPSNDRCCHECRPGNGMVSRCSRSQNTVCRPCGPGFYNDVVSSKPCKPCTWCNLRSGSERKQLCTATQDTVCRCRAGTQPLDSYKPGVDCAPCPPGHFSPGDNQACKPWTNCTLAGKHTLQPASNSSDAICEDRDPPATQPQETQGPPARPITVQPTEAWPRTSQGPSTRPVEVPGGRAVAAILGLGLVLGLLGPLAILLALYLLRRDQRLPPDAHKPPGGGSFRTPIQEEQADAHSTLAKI
Protocol: Full-length human CD134 (SEQ ID NO1) was re-cloned in a pcDNA3.1-derived expression plasmid (see Example 11 (c) above). […] After extensive washing in PBS/BSA/NaN₃, cells were fixed in 2% formaldehyde in PBS/BSA/NaN₃ for 30 minutes at 4° C.

[3] = target: T3, recombinant human CD134:human Fcγ (IgG1) fusion protein (human, UniProt P01857-1 100-330 = IgG part, limits assumed); test: competition ELISA, plate-bound CD134:Fc; competitor biotinylated mouse 12H3 at 20 ng/mL
T3 construct: domain: Fcγ (IgG1); Bought (R&D Systems); also called rhuCD134
Protocol: Ninety six-wells flat-bottom ELISA plates (Corning) were coated with 50 ng/well recombinant human CD134:human Fcγ (IgG1) fusion protein (R&D Systems) in PBS o/n at 4° C. After extensive washing in PBS/0.05% Tween 20, plates were blocked in PBS/0.05% Tween 20/1% BSA fraction V (Roche) for 1 hour at RT. […] After adding 1 M H₂SO₄, optical densities were measured at a wavelength of 450 nm (reference wavelength of 655 nm) using a microplate reader (BioRad).

[4] = target: T4, human fibronectin-derived control peptide (extra type III structural domain) (human); test: peptide ELISA
T4 construct: Synthesized by Pepscan Presto; coated on ELISA plates
T4 peptide: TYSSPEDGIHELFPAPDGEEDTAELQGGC
Protocol: as §1, §2

[5] = target: T5, truncated human CD134 'truncated (tc) CRD4' construct (human, UniProt P43489 147-277); test: flow cytometry, transiently transfected 293-F cells (parental 12H3: binding completely absent on tcCRD4)
T5 construct: also called truncated CRD4
T5 sequence: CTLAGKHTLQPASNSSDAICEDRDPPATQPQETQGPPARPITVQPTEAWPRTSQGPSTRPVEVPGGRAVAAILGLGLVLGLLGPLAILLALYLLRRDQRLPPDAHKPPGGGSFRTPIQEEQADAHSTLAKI
Protocol: (§3) After 48-72 h, surface human CD134 expression on transfected cells was analyzed by FACS analysis. To this end, transfected cells were harvested and put at 1-2×10⁶ cells/mL in ice-chilled PBS/BSA/NaN₃. […] After extensive washing in PBS/BSA/NaN₃, cells were subsequently incubated with 1:200 diluted PE-conjugated goat anti-human IgG (Fcγ specific) antibodies (Jackson ImmunoResearch) for 30 minutes at 4° C. After extensive washing in PBS/BSA/NaN₃, cells were fixed in 2% formaldehyde in PBS/BSA/NaN₃ for 30 minutes at 4° C. Binding of antibodies was measured using flow cytometry (FACSCalibur; BD Biosciences).

[6] = target: T3, recombinant human CD134:human Fcγ …; test: ELISA, plate-bound CD134:Fc 50 ng/well
Protocol: Ninety six-wells flat-bottom ELISA plates (Corning) were coated with 50 ng/well recombinant human CD134:human Fcγ (IgG1) fusion protein (R&D Systems) in PBS o/n at 4° C. After extensive washing in PBS/0.05% Tween 20, plates were blocked in PBS/0.05% Tween 20/1% BSA fraction V (Roche) for 1 hour at RT. […] After extensive washing in PBS/0.05% Tween 20, binding of antibodies was determined with 1:5000 diluted horseradish peroxidase-conjugated goat anti-mouse (Fcγ specific) antibodies (Jackson ImmunoResearch) or with 1:4000 diluted horseradish peroxidase-conjugated goat anti-human κ-specific antibodies (Southern Biotech) for 1 hour at RT, followed by a ready-to-use solution of TMB substrate (Invitrogen) for colorimetric detection. After adding 1 M H₂SO₄, optical densities were measured at, a wavelength of 450 nm (reference wavelength of 655 nm) using a microplate reader (BioRad).

[7] = target: T2, human CD134 (full-length, on cells); test: flow cytometry, stable CD134 293-F clone no. 23
Protocol: (§4) Full-length human CD134 (SEQ ID NO. 1) was re-cloned in a pcDNA3.1-derived expression plasmid (see Example 11 (d) below). […] After extensive washing in PBS/BSA/NaN₃, cells were subsequently incubated with 1:200 diluted PE-conjugated goat anti-mouse IgG (Fcγ specific) antibodies (Jackson ImmunoResearch) or with 1:200 diluted PE-conjugated goat anti-human IgG (Fcγ specific) antibodies (Jackson ImmunoResearch) for 30 minutes at 4° C. After extensive washing in PBS/BSA/NaN₃, cells were fixed in 2% formaldehyde in PBS/BSA/NaN₃ for 30 minutes at 4° C. Binding of antibodies was measured using flow cytometry (FACSCalibur; BD Biosciences).

[8] = target: T2, human CD134 (full-length, on cells); test: flow cytometry, PHA-stimulated human CD4+ T lymphocytes (data not shown)
Protocol: PHA-stimulated (at 10 μg/mL for 1 day; see above) human CD134 expressing T lymphocytes were generated. […] After extensive washing in PBS/BSA/NaN₃, cells were subsequently incubated with 1:50 diluted FITC-conjugated mouse anti-human IgG4 antibodies (Sigma) for 30 minutes at 4° C. […] After extensive washing in PBS/BSA/NaN₃, cells were fixed in 2% formaldehyde in PBS/BSA/NaN₃ for 30 minutes at 4° C. Binding of antibodies was measured using flow cytometry (FACSCalibur; BD Biosciences).

[9] = target: T2, human CD134 (full-length, on cells); test: flow cytometry, OX40L 10.0 µg/mL with anti-polyhistidine antibody
Protocol: PHA-stimulated (at 10 μg/mL for 1 day; see above) human CD134 expressing T lymphocytes were generated. […] After extensive washing in PBS/BSA/NaN₃, cells were fixed in 2% formaldehyde in PBS/BSA/NaN₃ for 30 minutes at 4° C.

[10] = target: T6, truncated human CD134 'CRD3' construct (human, UniProt P43489 108-277); test: flow cytometry, transiently transfected 293-F cells, 20.0 µg/mL
T6 construct: also called truncated human CD134 variant that lacked CRD1-CRD2
T6 sequence: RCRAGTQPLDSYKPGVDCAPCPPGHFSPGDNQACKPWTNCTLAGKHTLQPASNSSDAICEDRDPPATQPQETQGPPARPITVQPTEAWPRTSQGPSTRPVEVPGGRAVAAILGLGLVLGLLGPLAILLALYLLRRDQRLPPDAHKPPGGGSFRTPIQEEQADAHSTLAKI
Protocol: as §3, with “48” for “48-72”, “PBS/BSA/NaN₃ supplemented with 50 μg/mL purified human IgG (Sigma; blocking Fey receptors).” for “PBS/BSA/NaN₃.”, “goat anti-mouse IgG (Fcγ specific) antibodies (Jackson ImmunoResearch) or with 1:200 diluted PE-conjugated goat” for “goat”, “anti-human IgG (Fcγ specific) antibodies (Jackson ImmunoResearch) for 30 minutes at 4° C. […] After extensive washing in PBS/BSA/NaN₃, cells were subsequently incubated with 1:200 diluted PE-conjugated goat anti-mouse” for “anti-human”

[11] = target: T7, truncated human CD134 'CRD4' construct (human, UniProt P43489 127-277); test: as above
T7 construct: also called truncated human CD134 variant that lacked CRD1-CRD2-truncated CRD3 A1-module
T7 sequence: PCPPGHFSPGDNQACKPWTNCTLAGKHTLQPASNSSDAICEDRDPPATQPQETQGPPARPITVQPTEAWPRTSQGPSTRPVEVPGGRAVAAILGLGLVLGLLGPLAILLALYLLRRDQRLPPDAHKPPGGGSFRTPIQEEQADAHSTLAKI
Protocol: as §3, with “48” for “48-72”, “PBS/BSA/NaN₃ supplemented with 50 μg/mL purified human IgG (Sigma; blocking Fey receptors).” for “PBS/BSA/NaN₃.”, “goat anti-mouse IgG (Fcγ specific) antibodies (Jackson ImmunoResearch) or with 1:200 diluted PE-conjugated goat” for “goat”, “anti-human IgG (Fcγ specific) antibodies (Jackson ImmunoResearch) for 30 minutes at 4° C. […] After extensive washing in PBS/BSA/NaN₃, cells were subsequently incubated with 1:200 diluted PE-conjugated goat anti-mouse” for “anti-human”

[12] = target: T2, human CD134 (full-length, on cells); test: flow cytometry, stable CD134 293-F clone no. 5
Protocol: as §4

B1: chimeric human IgG4κ anti-human CD134 antibody clone 12H3 (antibody, V domains shown)
VH: EVQLQQSGPELVKPGASVKISCKTSGYTFKDYTMHWVKQSHGKSLEWIGGIYPNNGGSTYNQNFKDKATLTVDKSSSTAYMEFRSLTSEDSAVYYCARMGYHGPHLDFDVWGAGTTVTVSP
VL: DIVMTQSHKFMSTSLGDRVSITCKASQDVGAAVAWYQQKPGQSPKLLIYWASTRHTGVPDRFTGGGSGTDFTLTISNVQSEDLTDYFCQQYINYPLTFGGGTKLEIKR
notes: Murine V-regions linked to human IgG4 and human kappa constant regions; also called chimeric 12H3 (human IgG4/κ)
binding result [1]: binds
IC50 [2]: ~3.5 µg/mL
IC50 [3]: ~0.75 µg/mL
binding result [4]: no binding (tested: 50.0 µg/mL)
binding result [5]: no binding (tested: 20.0 µg/mL)
EC50 [6]: ~0.1 µg/mL
EC50 [7]: > 0.2 µg/mL

B2: chimeric human IgG1κ anti-human CD134 monoclonal antibody clone 12H3 (antibody, V domains shown)
VH: B1 VH
VL: B1 VL
notes: Human IgG1/kappa constant regions
binding result [5]: no binding (tested: 20.0 µg/mL)

B3: chimeric human IgG4κ anti-human CD134 antibody clone 20E5 (antibody, V domains shown)
VH: EVQLQQSGPELVKPGASVKMSCKASGYTFTSYVMHWVKQKPGQGLEWIGYINPYNDGTKYNEKFKGKATLTSDKSSSTAYMELSSLTSEDSAVYYCANYYGSSLSMDYWGQGTSVTVSS
VL: DIQMTQTTSSLSASLGDRVTISCRASQDISNYLNWYQQKPDGTVKLLIYYTSRLHSGVPSRFSGSGSGTDYSLTISNLEQEDIATYFCQQGNTLPWTFGGGTKLEIKR
notes: Murine V-regions linked to human IgG4 and human kappa constant regions
EC50 [8]: ~1 µg/mL
EC50 [6]: ~0.1 µg/mL

B4: polyhistidine-tagged recombinant human OX40 ligand (ligand, UniProt P23510 51-183, looked up)
chain: QVSHRYPRIQSIKVQFTEYKKEKGFILTSQKEDEIMKVQNNSVIINCDGFYLISLKGYFSQEVNISLHYQKDEEPLFQLKKVRSVNSLMVASLTYKDKVYLNVTTDNTSLDDFHVNGGELILIHQNPGEFCVL
notes: Bought; used together with mouse anti-polyhistidine antibody (clone AD1.1.10); also called CD252; not shown: polyhistidine tag
binding result [9]: binds

B5: humanized IgG4κ anti-human CD134 antibody clone 20E5 version 20E5_VL1VH1 (antibody, V domains shown)
VH: QVQLVQSGAEVKKPGASVKVSCKASGYTFTSYVMHWVRQAPGQRLEWMGYINPYNDGTKYNEKFKGRVTITSDTSASTAYMELSSLRSEDTAVYYCANYYGSSLSMDYWGQGTLVTVSS
VL: DIQMTQSPSSLSASVGDRVTITCRASQDISNYLNWYQQKPGKAPKLLIYYTSRLHSGVPSRFSGSGSGTDYTLTISSLQPEDFATYYCQQGNTLPWTFGQGTKVEIKR
notes: Stabilized human IgG4 (Angal et al.)/κ; also called 20E5_VL1H1; VL1H1
binding result [10]: binds
binding result [11]: binds
binding result [12]: binds
EC50 [6]: ~0.15 µg/mL
